# Reference: the domain aggregation screens of Martell et al. (2025)
# Test: soluble fraction after stress (log2 fold change); higher = more stays soluble; pooled small domains, quantitative proteomics
# Conditions: stress: 75 degC
# 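Also: 20 min heating vs room temperature control held 20 min.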
row,Sequence,soluble fraction (log2)
1,HMEMTGAHLRKKIRAKGFTFQQIADAIGESKQNLSQILSTNNIKTGTLERIAAAMGESVSYF,-0.00766
2,HMENDYTQAQFVQDLDSGVVREVIIIPNREAPTGYARVVFGDVVRELYATDIREVEALAREHGYEPTVED,0.343
3,HMENFDNIFDQRLMPSLFIIRNINQAIENNNNNKFLLNSTISMKDKHWIEIHPHHLKLIISGYQT,-0.328
4,HMENIEVDFGVGDTVSVIGGAWKDTVGVVQAMNPNKQSLTINVELFGRETPVEISFTDVQKM,-0.166
5,HMENINIRNMGIRAVEAAIISLSPDQRTFTWGATNKKLVTVPYEENPYSALAAFFKTDDGIEIYDAIEKRL,-1.08
6,HMENNNIAFSKFLEEVDSGRVVQVEIQGNNISGTLSDGSKFKTYSPNYPDLVSKLSEKNVSIIASPV,0.343
7,HMENPLVEVVVPVLNEERILKANIETLHHFLRTQPGFNFRITIADNGSTDKTQAIANDLTNSHAVIRV,-0.151
8,HMENPMIEQLKQFIEAQGLTQGQLAAKLGVSTATVNQYLQGKYKGDTAALDAKAAQLMARSREK,0.169
9,HMENRILIPTAENIGERLDRYISSELDAPRSQVQIWIDSGLVAVSGGLKPKNYRLREGDEIEVTIPDPV,-0.11
10,HMENRLREVRDEIATRHGILPTVFINDRVLMNIHSKKPKDVSQLWQVDGISDEFIMKYGPEFIAEYKKKAK,-0.119
11,HMENRREYQKAIDYLSDQIRAGTLTVGSRLPTERAIAEALGISRNSTREALRTMENMGMIESKQGSGHYLT,-0.215
12,HMENTELIELRKKRNLSQSQLAELLDLTRNQIANYESGRRIPDQETKQIIAGFFEMPAEEIFAG,-0.086
13,HMENTFNENLRRIRKEKKITQEQLAEFVGVSPQAVSKWEMNSFPDASLLPKIAEKLEVSIDELFGLK,0.205
14,HMENTVVMPNLLGKTMTEAKIELKDLSISITLKGSENSSQYAAGQIISQSVDSGTRVAVGSSVEVTIAGS,-0.843
15,HMENVIYGINGPVVTVRNSRSFSMMEMVFVGNERLVGEVIGITDKITTIQVYEETTGLRPGEPVYGTGSPM,-3.8
16,HMENVRKTEWVTISNDKSQTRTTVYFESGNQKLDKHPQIQGFEYQRTYVEGGVKYYLFVEKGTKLDE,0.0189
17,HMENYGEAITYIHGMIEDSSEKMLAASKALKVNANTLIKFMKDPYSVAAHIRDRIVENLANLEKAVKAI,-0.254
18,HMENYYMPVVAGQSEQDAKSMLNAMKLSLSIQVQEQESDSVAKGLAIGTSPAAGSQIRKGSSVILYISKGA,-0.844
19,HMEPALYRLFMAHPELNASAVARRLGIAQSLLAQYISGSKKPSPERERMILTEIHKIGEELATAS,-0.938
20,HMEPAPPPAAPPADPELQKRIDKLVEYIGKNGPEFEAVIRDKQHDNPDYAFVFGGEGHAYYRYLLWLLPRP,-0.466
21,HMEPELLTTKQVASVMNIGEERARAILLSRGVQPVSLPWGKERKTLRWSRRAVMTVIDTLHAEAQAKAGV,-2.59
22,HMEPLPDIPRGTRVSHQTAPADGDMPERRETGWTMTEPIRAQDGLAYVGVSVYGRGVVMLPVNSLSII,-0.384
23,HMEPSAQEIANKLLGHVKSLGLPITGLSISYNSTSDLATVRGQVQSQADREKIILAVGNVDHVAKVDDQLT,-0.028
24,HMEPSQEFSLADMVAYDLTGYPKSAALRAAVGASLGIGYGNAKQFVYRLNHYGISKDDFHRAAQEALDGL,-1.1
25,HMEPTAEQLKAIRQFASVNGRSWKSELRYLWETGAYHRAALGGADPGYLQQVRNQFGPGWLRAFKISK,-1.87

row,Sequence,soluble fraction (log2)
1,HMEPTPREIVVQQLGYRGLEVLGNAEYQFPKETQIIILKLAELISSGSVTETLEGGKLLALFRGVGINVR,-1.55
2,HMEPVQPVMYSEFIESVERGEVVEATIQGDKIIATDRSGNRYTVVGSAKDPQLVGQLLERNVAFKFVEE,0.118
3,HMEQAMIVILKENPDRRQLEFLTGWLQKQQIGIHISEGAHQTVLGLVGDATRLDIDMLKQMEIVEDVKRVQ,-0.823
4,HMEQGDTQQEIREKILNLLADGERHMITELKNIRTDQPIDDDKIVGKTLKTLLDEEEVYMDGSYIQLNG,0.653
5,HMEQIGSIIKDIRKKNNLTQNEFASILGVTFQAVSKWENDKSIPDITILKDISNKFNVDLNYLISG,-0.405
6,HMEQISVPIFTNDELVTFARSYSGELGYKIDDMAVLALYNRISNIQRLDQATTLTEVKDIVDEAVAKSE,0.096
7,HMEQLESAVASRTLIGQAQGVIMERYGLSAPNAFSVLSRISQDSNTKLAEVAQQIVATRRIPG,-0.093
8,HMEQLNKNIKFDNFLESLNFINKVSEVAEEENHHPDLKFGWGYADITIFTHAIKGLSEGDFVLAAKIDVI,0.19
9,HMEQMSLISKKKGERIDKFLGENLGDLSRSYIQKLLKDGLILVNGKKVKANYKLNEGDQIDVEVPDP,0.327
10,HMEQMSPYPNPSKGKIQFHNQEPMDIKVFNSLGQIVFEQRILSRAILDLSRLSPGQYIVQAGEQKNIWIK,-1.64
11,HMEQPPVPSVSITAALGSAVARRLAPHGFQKMPDLVDAYRAGKLAQISGIGGTTLDLIREWLTANARQQ,-0.441
12,HMEQQEFIVPHDSEGQRLDLFLVSVLGTHSRSQIRKLIVNGHVKLENRAPRPNLPVRAGESVVVSMPEPT,-0.849
13,HMEQQSIYLENRERMTINQVIDVDAFDEETLWANLKEGAVEISGSGLHIEKLDLAEGVLIVSGIIRAFAYV,-0.856
14,HMEQQVDYTQFIQDVRQGQIREVDVDRNGVINGIKRSGENFVTVIPGGYDRDLINDLVKQGVNATGEL,0.25
15,HMEQVKFFDAKVITTPPNRLKTRYTPAGNLRPEADWLQSGAIVPVYETSGAGWYRIGYQTWASAEWMQRLD,-2.8
16,HMEQVSDPALLERYAKEVVAASPKAVADYQAGNAKAFQALVGQMMKRTKGKGDPALIREILQKL,0.0645
17,HMEQVTMSNFLDKWGTSTKSPNAWYTSLSPMQKAEAKLLKEESGLTWNKWYEKNIYVGDGTN,0.985
18,HMERAYGVRVSLRLDDPFRTLLGADWSRTHWFASAEERDAALLEMSRKHEFSRPGDQPALVYEKVQN,-1.26
19,HMERDVNQLTPRERDILKLIAQGLPNKMIARRLDITESTVKVHVKHMLKKMKLKSRVEAAVWVHQERI,-1.55
20,HMEREQNILQGREVVERELRRLGLAEAYTVSDIAKALKFDDEEQFLAKVGFGDIQSRQISGAIALMEKN,-0.0753
21,HMERFLENAIPVLGETGLDIKSATEDFENALIRQALHLSGGNKNRAATLLGLKRTTFVEMLKRKSL,-1.12
22,HMERFMEFVITDTQQGQRLDVVLTETTEHLGSRSHMQRSIRAGLVSIDGITTTRASTKVSSGQIIRVEPT,-1.42
23,HMERGEFQKLGRATLEQTLARAGKTLAEVSLKAMLETFAFAAEEDLYEALGRGRVSAAKVGETLFPALKGR,-0.85
24,HMERKMKNNISDQTTYDTDKILNFNGKGYLNGLVIPNNYQIKEEGYYVFRQVALDGREQILYFTIQDLS,-1.98
25,HMERLSVSMGDMVVFVRDAVEAFRGLVKEKGITLTFESKVEHFYMNYDHDKVYKVVNNLLSNAVKFT,-0.145
